Here are results for one molecule from US20170073690A1 (CEMM FORSCHUNGZENTRUM FUER MOLEKULARE MEDIZIN, published 2017).

Assay [1] has as its target T1, SLC38A1 (human, UniProt Q9H2H9 1-487).
T1 construct: N-terminally SII-HA tagged bait
T1 sequence (looked up): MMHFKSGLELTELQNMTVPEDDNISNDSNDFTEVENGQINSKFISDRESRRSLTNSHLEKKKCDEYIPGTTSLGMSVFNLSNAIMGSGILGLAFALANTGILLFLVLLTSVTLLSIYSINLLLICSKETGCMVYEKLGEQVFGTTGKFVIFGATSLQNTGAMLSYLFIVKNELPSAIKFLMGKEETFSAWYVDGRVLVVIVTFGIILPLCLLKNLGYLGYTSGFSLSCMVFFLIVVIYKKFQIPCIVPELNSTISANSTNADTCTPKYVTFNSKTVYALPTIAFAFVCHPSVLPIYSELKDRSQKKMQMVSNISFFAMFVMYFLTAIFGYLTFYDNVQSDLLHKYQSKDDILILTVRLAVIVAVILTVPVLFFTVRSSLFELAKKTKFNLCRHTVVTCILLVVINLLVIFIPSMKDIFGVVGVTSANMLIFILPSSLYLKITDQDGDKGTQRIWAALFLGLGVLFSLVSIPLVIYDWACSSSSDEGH
Kind of assay: TAP-LC-MS/MS, SII-HA-tagged bait, HEK293 Flp-In TREx cells. Here is the method: (§1) Tandem affinity STREP-HA purifications were performed as previously described³. In brief, cells were stimulated with doxycycline/tetracycline for 24 h to induce expression of SII-HA-tagged bait proteins. Induction of SII-HA-LAMTOR 3 was combined with 9 h starvation in serum free medium. Protein complexes were isolated by TAP using streptavidin agarose followed by elution with biotin, and a second purification step using HA-agarose beads. Proteins were eluted with 100 mM formic acid, neutralized with triethylammonium bicarbonate (TEAB) and digested with trypsin, and the peptides were analysed by LC-MS/MS.

Assay [2] deals with T2, SLC38A2 (human, UniProt Q96QD8 1-506).
T2 construct: N-terminally SII-HA tagged bait
T2 sequence (looked up): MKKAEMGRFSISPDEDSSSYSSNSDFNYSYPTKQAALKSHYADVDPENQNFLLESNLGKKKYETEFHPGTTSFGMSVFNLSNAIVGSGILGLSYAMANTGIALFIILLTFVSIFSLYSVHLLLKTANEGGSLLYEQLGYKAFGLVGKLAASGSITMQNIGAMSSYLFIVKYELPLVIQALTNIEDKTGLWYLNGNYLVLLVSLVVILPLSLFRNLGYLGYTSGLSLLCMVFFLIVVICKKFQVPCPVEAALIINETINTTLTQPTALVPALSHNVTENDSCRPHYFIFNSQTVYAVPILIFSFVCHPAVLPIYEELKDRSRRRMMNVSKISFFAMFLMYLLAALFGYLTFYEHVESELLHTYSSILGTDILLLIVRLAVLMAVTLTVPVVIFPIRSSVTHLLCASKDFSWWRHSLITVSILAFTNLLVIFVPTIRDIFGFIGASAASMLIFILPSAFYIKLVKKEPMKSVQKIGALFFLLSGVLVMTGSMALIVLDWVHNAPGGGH
Described as above. Here is the method:
as §1

B1: RAGD (enzyme, human, UniProt Q9NQL2 1-400, looked up)
chain: MSQVLGKPQPQDEDDAEEEEEEDELVGLADYGDGPDSSDADPDSGTEEGVLDFSDPFSTEVKPRILLMGLRRSGKSSIQKVVFHKMSPNETLFLESTNKICREDVSNSSFVNFQIWDFPGQIDFFDPTFDYEMIFRGTGALIFVIDSQDDYMEALARLHLTVTRAYKVNTDINFEVFIHKVDGLSDDHKIETQRDIHQRANDDLADAGLEKIHLSFYLTSIYDHSIFEAFSKVVQKLIPQLPTLENLLNIFISNSGIEKAFLFDVVSKIYIATDSTPVDMQTYELCCDMIDVVIDISCIYGLKEDGAGTPYDKESTAIIKLNNTTVLYLKEVTKFLALVCFVREESFERKGLIDYNFHCFRKAIHEVFEVRMKVVKSRKVQNRLQKKKRATPNGTPRVLL
notes: Named in the results only as one of the four RAG GTPases; also called RAG GTPase D
As for B1, the binding result in assay [1] and in assay [2] was “no binding” each time.
